In patent CN115073593A (SHANGHAI JUNSHI BIOSCIENCES CO LTD; JUNMENG BIOSCIENCES CO …, dated 2022):
Substitutions are numbered along the chain they refer to.

B1: CB6-15 (重链突变库克隆) (Fab)
VH: EVQLVESGGGLVQPGGSLRLSCAASGFQVNRNYMSWVRQAPGKGLEWVSVIYPGGSTFYADSVKGRFTISRDNSMNTLFLQMNSLRAEDTAVYYCARVLPMYGDYLDYWGQGTLVTVSS
light: […]
notes: also called CB6-15-VH; CB6-15-HC
B2: CB6-30 (轻链突变库克隆) (Fab, V domains shown)
VH: B1 VH with Q28T, N30S, R31S, P53S
VL: DIVMTQSPSSLSASVGDRVTITCRASQWILPYLNWYQQKPGKAPKLLIYAASSLQSGVPSRFSGSGSGTDFTLTISSLQPEDFATYYCQQSSSSTPEYTFGQGTKLEIK
notes: also called CB6-30-VL; CB6-30-LC
B3: CB6-38 (轻链突变库克隆) (Fab, V domains shown)
VH: B1 VH with Q28T, N30S, R31S, P53S
VL: B2 VL with W28N, L30E, P31R, S92A
notes: also called CB6-38-VL; CB6-38-LC
B4: CB6-36 (轻链突变库克隆) (Fab, V domains shown)
VH: B1 VH with Q28T, N30S, R31S, P53S
VL: B2 VL with W28A, S94A, T95L
notes: also called CB6-36-VL; CB6-36-LC
B5: CB6-40 (轻链突变库克隆) (Fab, V domains shown)
VH: B1 VH with Q28T, N30S, R31S, P53S
VL: B2 VL with W28K, L30S, P31Q, S92T, S94F, T95M
notes: also called CB6-40-VL; CB6-40-LC
B6: CB6-29 (轻链突变库克隆) (Fab, V domains shown)
VH: B1 VH with Q28T, N30S, R31S, P53S
VL: B2 VL with W28M, S94A, T95K
notes: also called CB6-29-VL; CB6-29-LC
B7: CB6-37 (轻链突变库克隆) (Fab, V domains shown)
VH: B1 VH with Q28T, N30S, R31S, P53S
VL: B2 VL with W28M, S94A
notes: also called CB6-37-VL; CB6-37-LC
B8: CB6-19 (轻链突变库克隆) (Fab, V domains shown)
VH: B1 VH with Q28T, N30S, R31S, P53S
VL: B2 VL with W28Q, L30N, P31F, S92G, T95L
notes: also called CB6-19-VL; CB6-19-LC
B9: CB6-18 (轻链突变库克隆) (Fab, V domains shown)
VH: B1 VH with Q28T, N30S, R31S, P53S
VL: B2 VL with W28D, L30H, P31V, S92G, S94P, T95V
notes: also called CB6-18-VL; CB6-18-LC
B10: CB6-39 (轻链突变库克隆) (Fab, V domains shown)
VH: B1 VH with Q28T, N30S, R31S, P53S
VL: B2 VL with W28P, L30N, P31Q, S92K, T95L
notes: also called CB6-39-VL; CB6-39-LC
B11: CB6-22 (轻链突变库克隆) (Fab, V domains shown)
VH: B1 VH with Q28T, N30S, R31S, P53S
VL: B2 VL with W28R, S94A
notes: also called CB6-22-VL; CB6-22-LC
B12: CB6-35 (轻链突变库克隆) (Fab, V domains shown)
VH: B1 VH with Q28T, N30S, R31S, P53S
VL: B2 VL with W28K, L30H, P31Q, S92E, T95K
notes: also called CB6-35-VL; CB6-35-LC
B13: CB6-20 (轻链突变库克隆) (Fab, V domains shown)
VH: B1 VH with Q28T, N30S, R31S, P53S
VL: B2 VL with W28A, S92Y, S94I, T95I
notes: also called CB6-20-VL; CB6-20-LC
B14: CB6-32 (轻链突变库克隆) (Fab, V domains shown)
VH: B1 VH with Q28T, N30S, R31S, P53S
VL: B2 VL with W28D, L30D, P31G, S92A, S94P, T95V
notes: also called CB6-32-VL; CB6-32-LC
B15: CB6-24 (轻链突变库克隆) (Fab, V domains shown)
VH: B1 VH with Q28T, N30S, R31S, P53S
VL: B2 VL with W28Q, L30S, P31R, S94P
notes: also called CB6-24-VL; CB6-24-LC
B16: CB6-17 (轻链突变库克隆) (Fab, V domains shown)
VH: B1 VH with Q28T, N30S, R31S, P53S
VL: B2 VL with W28V, L30N, P31H, S92G, S94P
notes: also called CB6-17-VL; CB6-17-LC
B17: CB6-26 (轻链突变库克隆) (Fab, V domains shown)
VH: B1 VH with Q28T, N30S, R31S, P53S
VL: B2 VL with W28R, L30E, P31Q, S92A, T95S
notes: also called CB6-26-VL; CB6-26-LC
B18: CB6-41 (轻链突变库克隆) (Fab, V domains shown)
VH: B1 VH with Q28T, N30S, R31S, P53S
VL: B2 VL with W28A, L30A, P31Y, L47E, S92P, S94A, T95F
notes: also called CB6-41-VL; CB6-41-LC
B19: CB6-43 (轻链突变库克隆) (Fab, V domains shown)
VH: B1 VH with Q28T, N30S, R31S, P53S
VL: B2 VL with W28N, L30H, P31T, S92G, T95I
notes: also called CB6-43-VL; CB6-43-LC
B20: CB6-21 (轻链突变库克隆) (Fab, V domains shown)
VH: B1 VH with Q28T, N30S, R31S, P53S
VL: B2 VL with L30G, P31N, S92T, S94N, T95R
notes: also called CB6-21-VL; CB6-21-LC
B21: CB6-34 (轻链突变库克隆) (Fab, V domains shown)
VH: B1 VH with Q28T, N30S, R31S, P53S
VL: B2 VL with W28S, P31Q, S94P, T95V
notes: also called CB6-34-VL; CB6-34-LC
B22: CB6-28 (轻链突变库克隆) (Fab, V domains shown)
VH: B1 VH with Q28T, N30S, R31S, P53S
VL: B2 VL with W28D, L30V, P31S, S92A, S94P
notes: also called CB6-28-VL; CB6-28-LC
B23: CB6-42 (轻链突变库克隆) (Fab, V domains shown)
VH: B1 VH with Q28T, N30S, R31S, P53S
VL: B2 VL with W28S, L30I, P31Q, S92A, S94A, T95R
notes: also called CB6-42-VL; CB6-42-LC
B24: CB6-23 (轻链突变库克隆) (Fab, V domains shown)
VH: B1 VH with Q28T, N30S, R31S, P53S
VL: B2 VL with L30P, P31S, S92K, S94W, T95K
notes: also called CB6-23-VL; CB6-23-LC
B25: CB6-33 (轻链突变库克隆) (Fab, V domains shown)
VH: B1 VH with Q28T, N30S, R31S, P53S
VL: B2 VL with W28N, S94A, T95V
notes: also called CB6-33-VL; CB6-33-LC
B26: CB6-27 (轻链突变库克隆) (Fab, V domains shown)
VH: B1 VH with Q28T, N30S, R31S, P53S
VL: B2 VL with W28S, S92N, S94P, T95R
notes: also called CB6-27-VL; CB6-27-LC
B27: CB6-31 (轻链突变库克隆) (Fab, V domains shown)
VH: B1 VH with Q28T, N30S, R31S, P53S
VL: B2 VL with W28Q, L30R, P31Q, S94P
notes: also called CB6-31-VL; CB6-31-LC
B28: CB6-25 (轻链突变库克隆) (Fab, V domains shown)
VH: B1 VH with Q28T, N30S, R31S, P53S
VL: B2 VL with W28N, L30M, P31Q, S94P, T95K
notes: also called CB6-25-VL; CB6-25-LC
B29: JS016-38 (antibody, V domains shown)
VH: B1 VH with Q28R, N30R
VL: DIVMTQSPSSLSASVGDRVTITCRASQNIERYLNWYQQKPGKAPKLLIYAASSLQSGVPSRFSGSGSGTDFTLTISSLQPEDFATYYCQQSASSTPEYTFGQGTKLEIKR

Each binder was assayed against 生物素化的SARS-CoV-2 RBD (SARS-CoV-2, UniProt P0DTC2 319-541) (assay: ELISA screen, Fab culture supernatant on streptavidin-captured biotinylated RBD).
B1: binds. B2: binds. B3: binds. B4: binds. B5: binds. B6: binds. B7: binds. B8: binds. B9: binds. B10: binds. B11: binds. B12: binds. B13: binds. B14: binds. B15: binds. B16: binds. B17: binds. B18: binds. B19: binds. B20: binds. B21: binds. B22: binds. B23: binds. B24: binds. B25: binds. B26: binds. B27: binds. B28: binds.

Each binder was assayed against T1, 重组SARS-CoV-2-RBD-His (SARS-CoV-2, UniProt P0DTC2 319-541) (assay: BLI Octet Red 96e, antibody on Protein A probe, RBD-his in solution).
T1 construct: domain: RBD
In the case of B29, the Kd is reported as less than 0.0741 nM, the koff is reported as less than 1e-05 s⁻¹ and the kon is reported as 135000 M⁻¹ s⁻¹.

These binders were tested against T1, 重组SARS-CoV-2-RBD-His (assay: BLI Octet Red 96e, antibody on Protein A probe).
With B29 the “fold improvement of the affinity constant over CB6” value was ~100 倍 and the “fold slower dissociation rate than CB6” value was ~100 倍.
